Data on four compounds can be found in PMC3199381 (The EMBO Journal, 2011).

Where two headings read alike, the source gives them in different places.

For test [1], the target named is MglA from Thermus thermophilus HB8, wild type (Thermus thermophilus HB8). Description: fluorescence polarisation. (In general: Fluorescence polarisation rises when a labelled molecule tumbles more slowly, as on binding a larger partner.)
For test [2] the target is unchanged. Description: crystal structure.
The target of test [3] is MglB from Thermus thermophilus HB8, residues 6-139 (Thermus thermophilus HB8). Description: crystal structure.
Test [4] shares this target. Nature of the test: crystal structure. The source holds these as a separate data set.
Test [5] concerns the target MglA from Thermus thermophilus HB8, wild type (Thermus thermophilus HB8). Description: SEC. (In general: Size exclusion chromatography separates by hydrodynamic size, large species first.)
The target in test [6] is MglB from Thermus thermophilus HB8, residues 6-139 (Thermus thermophilus HB8). Description: SEC.
Test [7] concerns the target MglA from Thermus thermophilus HB8, wild type (Thermus thermophilus HB8). Nature of the test: fluorescence polarisation. The source holds these as a separate data set.
Test [8] deals with T1, MglA·MglB^A5 complex (Thermus thermophilus, UniProt Q5SJ82).
T1 sequence (Q5SJ82 1-196): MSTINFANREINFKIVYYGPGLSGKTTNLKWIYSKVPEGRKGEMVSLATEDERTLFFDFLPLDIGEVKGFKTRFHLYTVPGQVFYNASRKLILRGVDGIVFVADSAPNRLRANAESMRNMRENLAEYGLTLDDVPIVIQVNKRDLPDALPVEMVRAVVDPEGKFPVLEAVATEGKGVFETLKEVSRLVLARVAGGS
T1 sequence (Q5SJ83 6-139 E14A/R15A/G65S/R124A/E127A/R131A partner): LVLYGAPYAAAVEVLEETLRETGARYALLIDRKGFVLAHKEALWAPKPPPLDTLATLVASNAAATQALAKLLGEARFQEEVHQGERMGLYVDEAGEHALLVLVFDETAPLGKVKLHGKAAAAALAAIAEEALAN
Nature of the test: X-ray crystal structure, […] Å. In kind it is binding. The conditions noted are these: with AlF4- as transition state mimic.

Test [9] has as its target T2, T.t.MglA (Thermus thermophilus, UniProt Q5SJ82).
T2 sequence (Q5SJ82 1-196): T1 sequence (Q5SJ82 1-196)
Description: X-ray crystal structure, […] Å. In kind it is binding. The conditions noted are these: no Mg2+ detected at the nucleotide.

Take “MglB^A68/72R, residues 6-139 (domain or fragment)”: the equilibrium dissociation constant (Kd) in test [1] is 34.6 µM. In other words, the double-digit micromolar range.
Consider “MglB^A5 (E14/R15/R124/E127/R131A), residues 6-139 (domain or fragment)”, for which, in [2], the stoichiometry N (MglB per MglA) was found to be 2.
Regarding “MglB from Thermus thermophilus HB8, residues 6-139 (domain or fragment)”, the stoichiometry N was 4 in test [3], 2 in test [4] and 2 in [6]. The compound also had a stoichiometry N (MglB per MglA) in test [5] of 2. Further, the dissociation constant Kd in test [7] was 2 µM; in [1], 3.2 µM. Also, the stoichiometry N (MglB monomers per MglA) in test [1] is 2.
As for `Nc1nc2c(ncn2[C@@H]2O[C@H](COP(=O)(O)OP(=O)(O)O)[C@@H](O)[C@H]2O)c(=O)[nH]1` [GDP], the “X-ray crystal structure, 2.2 Å” value in [8] is listed as 3T12 (MglA·GDP·AlF4-·MglB^A5). Besides, the “X-ray crystal structure, 1.9 Å” value in test [9] is listed as 3T1O (MglA·GDP).

The term Kd denotes the equilibrium constant for the complex coming apart. Read a low Kd as a tighter complex. As usually defined, the stoichiometry N is the number of molecules, sites or subunits per partner or assembly.
